From paper PMC2291188 (The Journal of Cell Biology, 1995)
Values joined by “and” are separate entries in the source; they are usually repeats but may differ in a detail not shown here. Identical values can stand only once.

Biological target: T1, proPC2 (proform of the prohormone convertase PC2) (UniProt P28841 25-637)
T1 sequence (looked up): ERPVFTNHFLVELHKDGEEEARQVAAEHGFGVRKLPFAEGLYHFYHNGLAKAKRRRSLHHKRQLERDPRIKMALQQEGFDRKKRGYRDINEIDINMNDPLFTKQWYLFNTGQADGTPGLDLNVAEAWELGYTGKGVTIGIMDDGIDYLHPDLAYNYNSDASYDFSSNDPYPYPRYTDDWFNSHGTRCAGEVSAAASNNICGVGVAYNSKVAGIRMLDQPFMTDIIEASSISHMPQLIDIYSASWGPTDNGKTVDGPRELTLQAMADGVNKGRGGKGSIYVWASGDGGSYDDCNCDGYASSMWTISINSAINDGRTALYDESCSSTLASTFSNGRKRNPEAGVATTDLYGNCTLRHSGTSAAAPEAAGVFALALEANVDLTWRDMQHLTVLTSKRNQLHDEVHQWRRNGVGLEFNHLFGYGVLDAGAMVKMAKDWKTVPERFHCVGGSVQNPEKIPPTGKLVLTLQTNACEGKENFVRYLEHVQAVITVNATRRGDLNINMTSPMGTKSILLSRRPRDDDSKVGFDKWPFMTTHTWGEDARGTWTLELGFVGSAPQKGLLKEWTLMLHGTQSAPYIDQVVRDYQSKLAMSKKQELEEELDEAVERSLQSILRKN
Test: co-IP

B1: 27 kD 7B2 (rat) (natural protein, UniProt P27682 25-210, looked up)
chain: YSPRTPDRVSETDIQRLLHGVMEQLGIARPRVEYPAHQAMNLVGPQSIEGGAHEGLQHLGPFGNIPNIVAELTGDNIPKDFSEDQGYPDPPNPCPLGKTADDGCLENAPDTAEFSREFQLDQHLFDPEHDYPGLGKWNKKLLYEKMKGGQRRKRRSVNPYLQGKRLDNVVAKKSVPHFSEEEKEPE
B1 was tested, and the “stoichiometry N” value was 1.12 mol 7B2 per mol PC2 (molar ratio, Clone#1) and 1.09 mol 7B2 per mol PC2 (molar ratio, Clone#2).
